assay: yeast display, Sf9 membrane polyspecificity reagent, FACS + sequencing; frameworks hold sequencing errors
Method in brief: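 Nanobodies from a synthetic yeast display library (Saccharomyces cerevisiae BJ5465), induced 36–48 hours with galactose, were stained 1 hour at 4 °C with 10% biotinylated, detergent-solubilized Sf9 membrane reagent, enriched on streptavidin microbeads, then FACS-sorted. Anti-HA (expression) and streptavidin (reagent binding) fluorescence set low and high (top ~1%) gates. Polyreactivity labels come from the gate of origin. Genes were colony-PCR amplified, MiSeq 2 × 250 sequenced and filtered by CDR length.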

Sequence	polyreactivity (PSR sort gate)
QVQLVESGGGLVQAGVRLRLSCPASGITFEGYAMGWYRKAPGKERELVAAIRSSGTSTYYADSVKGRFTISRDNAKNTVYLQMNSLKPEDTAVYYCNRARSSSRYDYWGQGTKVTVSS	low polyreactivity
QVQLVESGGGLVQAGGSLRLSCAASGSIFQAYAMGWYRQAPGKERELVASISQSGDSTYYADSVKGRFTISRDNAKNTVYLQMNSLKPEDTAVYYCAAVQYGHRRGRVSVRRRLDYWGQGTQVTVSS	low polyreactivity
QVQLVESGGGLVQAGGSLRLSCAASGGIFHVYGMGWYRQAPGKERELVAAISYSGASTSYADSVKGRFTISRDNAKNTVYLQMNSLKPEDTAVYYCAAKVYYRRYRSGYDYWGQGTQVTVSS	high polyreactivity
QVQLVESVRGLVQAGGSLRLSCAASGSTFDNNAMGWYRQAPGKEREFVAAITYSGGGSTSYADSVKGRFTISRDNAKNTVYLQMNSLKPEDPAVYDCAAREFETDGYSLVAYNYWGQGTQVTVSS	low polyreactivity
QVQLVESGGGLVQAGGSLRLSCAASGSIFYGNTMGWYRQAPGKDRELVASITRPGDRTYYADSVKGRFTISRDNAKNTVYLQMNSLKPEDTAVYSCNAGLVLPPPGASIVYFDQMDYWGQGTQLTVSS	low polyreactivity
QVQLVESGGGLVQAGGSLRLSCAASGSIFVIYAMGWYRQAPGKERELVAAITWNGGSTFYADSVKGRFTISRDNAKNTVYLQMNSLKPEDTAVYYCNAVAVSNSGWEYDYWGQGTQVTVSS	low polyreactivity
QDQLVESGGVLVQAGGSLRLSCAASGRIFVYNAMGWYRQAPGKERELVATIDYSGGSTYYADSVKGRFTNSRDYAKNTVYLQINSLKPEDPAVYYCNADWSVYAYDSWGQGTQVTVSS	low polyreactivity
QVQLVESGGGLVQAGGSLRLSCSASGIIFRGYAMGWYRQAPRKERELVAGITSGGDTNYADSVKGRFTISRDNAKNTVYLQMNSLKPEETAVYYCNVALQAKGMGYWGQGTQVTVSS	low polyreactivity
QVQLVESGGGLVQAGGSLRLSCAASGITFSHNAMGWYRQAPGKERELVAVIRWSGGRTYYADSVKGRFTISRDNAKNTVYLQMNSLKPEDTAVYYCAARPSTAFPYGKIMDYWGQGTQVTVSS	low polyreactivity
QDQLVESGGGLVQAGGSLRLSCAASGTTFYRYAMGWYRQAPGKERELVAAISSSGGYTYYADSVKGRFTISRDIAKNTVYLQMNSLKPEDTAVYYCNAAYRVRRFDYWGQGTQVTVSS	low polyreactivity
QVHLVESGGGLVQAGGSLRLSCAASGRTFPGYAMGWYRQAPGKERELVATITFSDGSTYYADSVKGRFTISLDNAKNTVYLQMNSLKPEDTAVYYCNARRSYFLRYGVNYWGQGTQVTVSS	low polyreactivity
QVQLVESGGGLVQAGGSLPLSCAASGSILYFYAMGWYRQSPGKERELVAAISWTGGSTYYADSVKGRFTISRDNAKNTVYLQMNSLKPEDTAVYYCAAELWYEGYDYWGQGTQVTVSS	high polyreactivity
QVQLVESGGGLVQAGGSLRLSCAASGSTFRYYAMGWYRHAPGKDRELVAAISGSGGRTYYADSVKGRFTISRDNAKNTVYLQMNSLKPEDTAVYYCNTRGRRTDYDYWGQGTQVTVSS	high polyreactivity
QVQLVESGGGLVQAGGSLRLICAASGSIFYYYAMGWYRQAPGKERELVATITWNGAGTFYADSVKGRFTISRDNAKNTVYLQMNSLKPEDTSVYYCAASWYGESGYEYWGQGTQVTVSS	low polyreactivity
QVQLVESGGGLLQAGGSLRLSSAASGIIFYAYAMGWYRQAPGKERELVAAITFSAVSTYYADSVKGRFTISRDNAKNTVYLQMNCLKPEDTAVYYCAAEAYKHGVWDYDYWGQGTQVTVSA	low polyreactivity
QVQLVESGGGLVQAGGSLRLSCAASGRTFGIYAMGWYRQAPGKERELVADITIGGSTYYADSVKGRFTISRDNAKNTVYLQMNSLKPEDTAVYYCNADVVVQYYFTYYRVFTYDYWGQGTQVTVSS	low polyreactivity
QVQLVESRGVLVQAGGSVRVSCAASGSTFTFNAMGWYRQAPGKVRELVADITSGGRTNYADSVKGRFTISRDNAKNTVYLQMNSLKPEDTAVYYCAARWWAHEYPGYDSWGQGTQVTVSS	low polyreactivity

Source: the nanobody polyreactivity screen of Harvey et al. (2022)
